This is an account of results in patent US20260348974 (published 2026).

This test deals with human beta-tryptase (human, UniProt Q15661). Nature of the test: BLI steady state.
Chain of human beta-tryptase (Q15661 31-275): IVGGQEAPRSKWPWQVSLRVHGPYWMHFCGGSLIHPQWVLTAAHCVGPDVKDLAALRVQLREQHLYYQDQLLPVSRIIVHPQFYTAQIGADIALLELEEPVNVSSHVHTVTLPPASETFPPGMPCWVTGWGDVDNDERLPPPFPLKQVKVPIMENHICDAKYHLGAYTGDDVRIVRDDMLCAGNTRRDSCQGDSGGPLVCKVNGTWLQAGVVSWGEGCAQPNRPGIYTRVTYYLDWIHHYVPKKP

B1: E104.v1 6DS (LC.F116C.Q124C.HC.F126C.A141C) (antibody, V domains shown)
VH: EVQLVESGPGCVKPSETLSLTCTVSRFSLIGYAITWIRQPPGKGLEWIGGISSAATTFYSSWAKSRVTISVDTSKNQFSLKLSSVTAADTAVYYCARDPRGYGAALDRLDLWGQGTCVTVSS
VL: DIQMTQSPSSLSASVGDRVTITCQSIKSVYNNRLGWYQQKCGKAPKLLIYETSILTSGVPSRFSGSGSGTDFTLTISSLQCEDFATYYCAGGFDRSGDTTFGQGTKVEIKR
As to B1, binding was put at a Kd of 3.16 nM.

B2: E104.v1 4DS (antibody, V domains shown)
VH: B1 VH
VL: B1 VL
B2: binding was characterised by a dissociation constant (Kd) of 1.63 nM.
